In PMC8449060, “A fully reversible 25-hydroxy steroid kinase involved in oxygen-independent cholesterol side-chain oxidation” (The Journal of Biological Chemistry, 2021):

Legend:
Assay in all cases: purified protein
[1] = test system: Nc1ncnc2c1ncn2[C@@H]1O[C@H](COP(=O)(O)OP(=O)(O)OP(=O)(O)O)[C@@H](O)[C@H]1O; settings: forward direction, 1 mM 25-OH-CDO, 10 mM MgCl2, 9% (w/v) HPCD, 50 mM Tris/HCl pH 7.8, 30 °C
[2] = test system: C[C@H](CCCC(C)(C)O)[C@H]1CC[C@H]2[C@@H]3CCC4=CC(=O)C=C[C@]4(C)[C@H]3CC[C@]12C; settings: forward direction, 5 mM ATP, 10 mM MgCl2, 9% (w/v) HPCD, 50 mM Tris/HCl pH 7.8, 30 °C
[3] = test system: Nc1ncnc2c1ncn2[C@@H]1O[C@H](COP(=O)(O)OP(=O)(O)O)[C@@H](O)[C@H]1O; settings: reverse direction, 1 mM 25-phospho-CDO, 10 mM MgCl2, 9% (w/v) HPCD, 50 mM Tris/HCl pH 7.8, 30 °C
[4] = test system: C[C@H](CCCC(C)(C)OP(=O)(O)O)[C@H]1CC[C@H]2[C@@H]3CCC4=CC(=O)C=C[C@]4(C)[C@H]3CC[C@]12C; settings: reverse direction, 5 mM ADP, 10 mM MgCl2, 9% (w/v) HPCD, 50 mM Tris/HCl pH 7.8, 30 °C, apparent, tested only up to 4 mM, no saturation

Q: Which results are given for “25-HSK (25-hydroxy-steroid kinase) (Sterolibacterium denitrificans)”?
A: Km [1]: 800 ± 50 µM; Km [2]: 300 ± 10 µM; Km [3]: 35 ± 3 µM; Km [4]: 8000 ± 700 µM
